The text below walks through data of publication doi:10.1101/2020.06.27.175620 (bioRxiv, 2020).

The chains are these.
B2: cytochrome b of CIII2 (natural protein, Rhodobacter capsulatus)
chain: MSGIPHDHYEPKTGIEKWLHDRLPIVGLVYDTIMIPTPKNLNWWWIWGIVLAFTLVLQIVTGIVLAMHYTPHVDLAFASVEHIMRDVNGGWAMRYIHANGASLFFLAVYIHIFRGLYYGSYKAPREITWIVGMVIYLLMMGTAFMGYVLPWGQMSFWGATVITGLFGAIPGIGPSIQAWLLGGPAVDNATLNRFFSLHYLLPFVIAALVAIHIWAFHTTGNNNPTGVEVRRTSKADAEKDTLPFWPYFVIKDLFALALVLLGFFAVVAYMPNYLGHPDNYVQANPLSTPAHIVPEWYFLPFYAILRAFAADVWVVILVDGLTFGIVDAKFFGVIAMFGAIAVMALAPWLDTSKVRSGAYRPKFRMWFWFLVLDFVVLTWVGAMPTEYPYDWISLIASTYWFAYFLVILPLLGATEKPEPIPASIEEDFNSHYGNPAE

The data set “cytochrome b of CIII2” addresses B2. The data set is described as follows: cryo-EM structure.
The data set “cryo-EM structure” concerns the molecule itself. Briefly: cryo-EM structure.

B1: Rieske FeS protein of CIII2 (natural protein, Rhodobacter capsulatus)
chain: MSHAEDNAGTRRDFLYHATAATGVVVTGAAVWPLINQMNASADVKAMASIFVDVSAVEVGTQLTVKWRGKPVFIRRRDEKDIELARSVPLGALRDTSAENANKPGAEATDENRTLPAFDGTNTGEWLVMLGVCTHLGCVPMGDKSGDFGGWFCPCHGSHYDSAGRIRKGPAPRNLDIPVAAFVDETTIKLG
In the case of B1, the binding result with cytochrome b of CIII2 is “binds”.
Regarding B2, the binding result in “cryo-EM structure” is reported as “binds”.
